Results from patent publication US20250136650A1, “COMPOSITIONS AND METHODS FOR DNA BINDING AND TRANSCRIPTIONAL REGULATION” (THE UNIVERSITY OF CHICAGO, priority 2021, published 2025).
Residue numbers refer to the chain shown, from its start. “Also recorded” adds a separate entry of the source. *1 amine or outer side, *2 acyl side, *3 side chain or, on linkers, in order; H or OH if unused. Bridges are numbered along the chain shown (N, C = ends). Roman numbers before positions name the chains, in order. [ ]: non-standard residue; d: D form. X1 = O=C1CC([*:1])C(=O)N1CC(=O)[*:2]; S5 = C=CCCC[C@](C)(N)C(=O)O

Assays:
[1] = tested on: FJSTR72 (Fos/Jun-derived stapled bZIP dimer) (synthetic (human c-Fos/c-Jun)); assay: EMSA
[2] = tested on: T1, STR22 (XBP1-derived stapled bZIP dimer) (synthetic (human XBP1)); assay: EMSA; details: 20 mM HEPES pH 8.0, 150 mM NaCl, 2 mM MgCl2, RT 1 h; 14.17 nM reported in Example 4 (FIG. 2)
T1 sequence 1: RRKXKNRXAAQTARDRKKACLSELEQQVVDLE
T1 sequence 2: T1 sequence 1 with C20R, E25X

[3] = biological target: T2, STR4 (XBP1-derived unstapled bZIP dimer, Met-to-Leu) (synthetic (human XBP1)) (UniProt P17861+P17861); assay: EMSA; details: 20 mM HEPES pH 8.0, 150 mM NaCl, 2 mM MgCl2, RT 1 h
T2 sequence 1: T1 sequence 1 with X4L, X8V
T2 sequence 2: T1 sequence 1 with X4L, X8V, C20R, E25X

[4] = tested on: T1, STR22 (XBP1-derived stapled bZIP dimer) (synthetic (human XBP1)); assay: cell_activity; details: +/-3.5; inhibition of XBP1s-induced luciferase in HeLa, 24 h
[5] = tested on: T1, STR22 (XBP1-derived stapled bZIP dimer) (synthetic (human XBP1)); assay: competition; details: EMSA competition with unlabeled UPRE against 5 nM labeled UPRE
Ebox site = assay: EMSA, binding to Ebox site
From the text: (§1) bZIP transcriptional repressors FJSTR7 (shown in FIGS. 42 and 45), FJSTR71 (shown in FIGS. 52 and 53), and FJSTR72 (shown in FIGS. 52 and 54), were generated and tested.

cells = assay: Fluorescent microscopy of cell penetration by FJSTRs; format: cell-based; details: FJSTR7 and FJSTR72 at 5 μM, FJSTR71 at 2 μM
From the text: as §1

MC38 tumors = assay: Subcutaneous MC38 tumor model; format: in vivo; details: MC38-bearing mouse, intratumoral
AP-1 site = assay: EMSA, direct binding to AP-1 DNA probe
From the text: The DNA binding dimer STR22 (shown in FIG. 21 and FIG. 27) was synthesized. STR22 was subjected to EMSA to measure binding to either the UPR element (UPRE) or AP-1 binding site (AP-1).
as §1
Electrophoretic Mobility Shift Assays (EMSAs): For direct DNA binding experiments, STRs were serially diluted at 10× concentration in water and then 1 μL of STR solution was added to 9 μL of 5 nM IRD700-labeled DNA probe bearing either a UPRE or AP-1 motif in a final 1×binding buffer (20 mM HEPES pH 8.0, 150 mM NaCl, 5% glycerol, 1 mM EDTA, 2 mM MgCl2, 0.5 mg/mL BSA, 1 mM DTT, 0.05% NP-40). Samples were incubated for 1 hr at RT. 5 μL of each reaction was loaded on an 8% acrylamide, 0.5×TBE gel equilibrated to 4° C. Samples were resolved for 60 min at 110 V and 4° C. with 0.5×TBE+1 mM MgCl2 running buffer. Gels were pre-run at 110 V for 15 min prior to sample loading. For competition experiments, 30 or 60 nM STRs and 5 nM labeled UPRE probe were incubated with 0, 7.8, 13, 21.6, 36, 60 or 100 nM unlabeled competitor oligo for 1 hr at RT. […] ImageJ was used to quantify band intensity and the fraction of bound DNA was calculated by dividing the band intensity of bound DNA by the band intensity of free DNA from the vehicle treated lane. […]

AP-1 site probe (FJSTR)
Kd [1]: 12 nM

TGACGTGG (double strand) [UPRE consensus probe]
Kd [2]: 11 nM
Kd [3]: 49 nM

3xUPRE luciferase reporter
IC50 [4]: 7400 nM

TGACGTGG (double strand) [UPRE consensus competitor (unlabeled)]
Ki [5]: 28.6 nM

I: Ac-IRRERNKMAAAKSRNRRRECI[S5]ELQ[S5]EIEQLE-NH2 / II: Ac-RKRMRNRIAASKSRKRKLERI[S5]RLK[S5]KIKTLK-NH2 (linker I:20-II:25 via X1; staple (Z) I:22-I:26, II:22-II:26) [FJSTR72]
binding to Ebox site (Ebox site): does not bind to the Ebox site
penetration of cells (cells): penetration; also recorded: capable of entering cells
tumor growth (MC38 tumors): reduces tumor growth
Kd (AP-1 site): 12 nM
